Values quoted from earlier work in patent US8759488B2, “High stability streptavidin mutant proteins” (Isis Innovation Limited, priority 2009, dated 2014).
Several values for one entry are separate records, joined by “and”; a condition that tells them apart may be missing. Identical values can stand only once.

B1: monomeric streptavidin: streptavidin subunit unable to tetramerise, e.g. with mutations T76R, V125R, V55T and L109T (protein)
chain: DPSKDSKAQVSAAEAGITGTWYNQLGSTFIVTAGADGALTGTYESAVGNAESRYTLTGRYDSAPATDGSGTALGWRVAWKNNYRNAHSATTWSGQYVGGAEARINTQWTLTSGTTEANAWKSTLRGHDTFTKVKPSAASIDAAKKAGVNNGNPLDAVQQ
half life for biotin (biotin): approximately 3 minutes | off rate of biotin (free biotin): 0.0034 s⁻¹ and 0.0041 s⁻¹
